Measured values published in paper PMC2132522.
pKd: −log10 of the molar value.

Key:
[1] = target: G-actin (rabbit muscle) (rabbit) (UniProt P68135)
[2] = target: pyrenyl-labeled F-actin (rabbit muscle) (rabbit) (UniProt P68135); test: other fluorescence titration
[3] = target: NBD-labeled G-actin (rabbit muscle) (rabbit) (UniProt P68135); test: other fluorescence titration
[4] = target: F-actin (rabbit muscle) (rabbit) (UniProt P68135); test: co-sedimentation

Recombinant ADF1 from Arabidopsis thaliana (natural protein)
association to barbed ends in low ionic strength F buffer (1 mM MgCl2) [1]: 20 fold | Ka [2]: > 1e+06 M⁻¹ | stoichiometry N [2]: 1 | pKd [3]: 7.60 | stoichiometry N [3]: 1 | stoichiometry N [4]: 1
